Test results as given in patent EP4733322A1 (dated 2026).

Molecular target: T1, KRAS G12V peptide on HLA-A*11 (human)
T1 peptide: VVGAVGVGK
Assay: cytokine release

- binding result: recognises
B1: CR-KVA11-N03 (TCR, V domains shown)
Valpha: RKEVEQDPGPFNVPEGATVAFNCTYSNSASQSFFWYRQDCRKEPKLLMSVYSSGNEDGRFTAQLNRASQYISLLIRDSKLSDSATYLCVVPGGTGGGNKLTFGTGTQLKVEL
Vbeta: DTAVSQTPKYLVTQMGNDKSIKCEQNLGHDTMDWYKQDSKKFLKIMFSYNNKELIINETVPNRFSPKSPDKAHLNLHINSLELGDSAVYFCASSHWGAQETQYFGPGTRLLVL
